Changes are numbered by the printed parent chain.
T1: canine CD20 on cells (HEK293, MDCK II, CLBL-1 or native B cells) (canine, UniProt Q3C2E2 1-297)
T1 chain: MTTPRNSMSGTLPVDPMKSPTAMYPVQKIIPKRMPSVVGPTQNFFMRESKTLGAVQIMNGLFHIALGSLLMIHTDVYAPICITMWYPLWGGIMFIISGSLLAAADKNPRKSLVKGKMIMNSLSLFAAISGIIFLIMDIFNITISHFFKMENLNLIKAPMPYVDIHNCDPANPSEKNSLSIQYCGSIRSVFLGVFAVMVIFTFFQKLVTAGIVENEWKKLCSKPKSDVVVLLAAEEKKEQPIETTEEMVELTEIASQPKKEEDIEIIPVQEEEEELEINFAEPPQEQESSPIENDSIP

B1: PMX187 in bispecific format (canine CD3 arm PMX187 x Rituximab arm, human IgG4PE knob-in-hole) (bispecific antibody)
heavy 1: EVQLVESGGDLVKPGGSLRLSCVASGFTFSSYHMSWVRQAPGKGLQWVASINSGGSRTSYVDAVKGRFTISRDNAKNTLYLQMNSLRAEDTAVYYCASGRTGPKLGLGDYGMDSWGHGTSLFVSSASTKGPSVFPLAPCSRSTSESTAALGCLVKDYFPEPVTVSWNSGALTSGVHTFPAVLQSSGLYSLSSVVTVPSSSLGTKTYTCNVDHKPSNTKVDKRVESKYGPPCPPCPAPEFEGGPSVFLFPPKPKDTLMISRTPEVTCVVVDVSQEDPEVQFNWYVDGVEVHNAKTKPREEQFNSTYRVVSVLTVLHQDWLNGKEYKCKVSNKGLPSSIEKTISKAKGQPREPQVYTLPPSQCEMTKNQVSLSCAVKGFYPSDIAVEWESNGQPENNYKTTPPVLDSDGSFFLVSRLTVDKSRWQEGNVFSCSVMHEALHNRFTQKSLSLSLGK
light 1: SYVLTQLPSKNVTLKQPAHITCGGDNIGSKSVHWYQQKLGQAPVLIIYYDSSRPTGIPERFSGANSGNTATLTISGALAEDEADYYCQVWDSSAKAWVFGAGTQLTVLRTVAAPSVFIFPPSDEQLKSGTASVVCLLNNFYPREAKVQWKVDNALQSGNSQESVTEQDSKDSTYSLSSTLTLSKADYEKHKVYACEVTHQGLSSPVTKSFNRGEC
heavy 2: not shown
light 2: QIVLSQSPAILSASPGEKVTMTCRASSSVSYIHWFQQKPGSSPKPWIYATSNLASGVPVRFSGSGSGTSYSLTISRVEAEDAATYYCQQWTSNPPTFGGGTKLEIKRTVAAPSVFIFPPSDEQLKSGTASVVCLLNNFYPREAKVQWKVDNALQSGNSQESVTEQDSKDSTYSLSSTLTLSKADYEKHKVYACEVTHQGLSSPVTKSFNRGEC
B2: PMX188 in bispecific format (canine CD3 arm PMX188 x Rituximab arm, human IgG4PE knob-in-hole) (bispecific antibody)
heavy 1: B1 heavy 1 with N77K
light 1: B1 light 1 with V44I, A101E
heavy 2: not shown
light 2: B1 light 2
B3: PMX172VH/PMX263VH/PMX172VL (bispecific antibody, V domains shown)
VH 1: EVQLVESGGDLVKPGGSLRLSCVASGFTFSSYHMSWVRQAPGKGLQWVAYSNSGGSRTSYADAVKGRFTISRDNAKNTLYLQMNSLRAEDTAVYYCASEGGGGRYGYKDYGMDYWGHGTSLFVSS
VH 2: EVQLVESGGDLVKPGGSLRLSCVASGFTFSRYYMNWVRQAPGKGLQWVAYINSGGSSTSYADAVKGRFTISRDNAKNTLYLQMNSLRADDTAVYYCTSFDYWGQGTLVTVSS
VL: SYVLTQLPSKNVTLKQPAHITCGGDNIGSKSVHWYQQKLGQAPVLIIYYDSSRPTGIPERFSGANSGNTATLTISGALAEDEADYYCQVWDSSAKAWVFGEGTQLTVL
B4: PMX172VH/PMX262VH/PMX172VL (bispecific antibody, V domains shown)
VH 1: B3 VH 1
VH 2: B3 VH 2 with F27I, S57P, S59T, D89E
VL: B3 VL
B5: PMX172VH/PMX268VH/PMX172VL (bispecific antibody, V domains shown)
VH 1: B3 VH 1
VH 2: EVQLVESGGDLMKPGGSLRLSCVASGITFSGYHMSWVRQAPGKGLQWVAFINSGRKNTAYADAVKGRFTISRDNAKNTLYLQMNSLRAEDTAIYYCTTLEFWGQGTLVTVSS
VL: B3 VL
B6: PMX172VH/PMX229VH/PMX172VL (bispecific antibody, V domains shown)
VH 1: B3 VH 1
VH 2: EVQLVESGGDLVKPGGSLRLSCVASGITFSRYHMSWVRQAPGKGLQWVAFINTGRSSTNYADAVAGRFTISRDNAKNTLYLQMNGLTVEDTAVYYCSTLDYWGQGTLVTVSS
VL: B3 VL
B7: PMX172VH/PMX233VH/PMX172VL (bispecific antibody, V domains shown)
VH 1: B3 VH 1
VH 2: B3 VH 2 with V2M, N52D, S57P, S59N, D89E, T91A, V93I, S98T, Y101F
VL: B3 VL
B8: PMX172VH/PMX272VH/PMX172VL (bispecific antibody, V domains shown)
VH 1: B3 VH 1
VH 2: B3 VH 2 with N52D, G54D
VL: B3 VL
B9: PMX172VH/PMX239VH/PMX172VL (bispecific antibody, V domains shown)
VH 1: B3 VH 1
VH 2: B3 VH 2 with Y50F, N52T, A61G, D89E
VL: B3 VL
B10: PMX172VH/PMX236VH/PMX172VL (bispecific antibody, V domains shown)
VH 1: B3 VH 1
VH 2: B3 VH 2 with F27L, N52D, S57P, S59N, D89E, T97S
VL: B3 VL
B11: PMX172VH/PMX234VH/PMX172VL (bispecific antibody, V domains shown)
VH 1: B3 VH 1
VH 2: B3 VH 2 with V2L, M34L, Y50F, N52T, S59N, D89E, Y101S
VL: B3 VL
B12: PMX172VH/PMX235VH/PMX172VL (bispecific antibody, V domains shown)
VH 1: B3 VH 1
VH 2: B3 VH 2 with F27I, S53T, G55E, S59I, A61S, D89E, S98T, F99L, D100E
VL: B3 VL
B13: PMX172VH/PMX240VH/PMX172VL (bispecific antibody, V domains shown)
VH 1: B3 VH 1
VH 2: B3 VH 2 with F27L, Y33H, N35S, Y50F, G55R, S57D, S59T, D89E, S98T
VL: B3 VL
B14: PMX172VH/PMX273VH/PMX172VL (bispecific antibody, V domains shown)
VH 1: B3 VH 1
VH 2: EMQLVESGGDLVKPGGSLRLSCVASGFTFSRYHMSWVRQAPGKGLQWVAYIDSDGSPTNYADAVKGRFTISRDNAKNTLYLQMNSLRAEDTAVYYCTTYDQWGQGTLVTVSS
VL: B3 VL
B15: PMX172VH/PMX230VH/PMX172VL (bispecific antibody, V domains shown)
VH 1: B3 VH 1
VH 2: B3 VH 2 with Q3H, F27I, S30N, A40T, N52D, S57P, S59T, D89E
VL: B3 VL
B16: PMX172VH/PMX264VH/PMX172VL (bispecific antibody, V domains shown)
VH 1: B3 VH 1
VH 2: B6 VH 2 with I27F, S56M, A65K, G85S, T87R, V88A, S97T, T98S
VL: B3 VL

What was measured:
[1] = molecular target: canine CD3 on canine T cells (canine PBMC) (canine, UniProt P27597 22-202); experiment: cell-based or functional assay
[2] = molecular target: T2, canine CD3εδ-Fc (heterodimer of canine CD3ε-hIgG4PE-knob and canine CD3δ-hIgG4PE-hole) (canine); experiment: SPR (Biacore 8K), CD3εδ-Fc amine-coupled to CM5 chip, multi-cycle kinetics, antibody 600-7.4 nM
T2 construct: also called CD3εδ-Fc fusion protein; copies: 1 + 1
Procedure: Binding affinity of shortlisted candidates, described in Example 3, were assessed using Biacore 8K (Cytiva). Briefly, a CM5 Sensor Chip (Cytiva) was docked onto a Biacore 8K, equilibrated for 30′ at RT and then Running Buffer (10 mM HEPES pH6 150 mM NaCl 3 mM EDTA and 0.005% Tween20) was applied to the SPR chip surface. Canine CD3εδ-Fc was diluted into 10 mM acetate buffer pH4.5 and immobilised using standard amine coupling reaction. Antibodies dilutions were prepared by diluting the shortlisted candidates from 600 nM to 7.4 nM (5 concentrations with 1:3 dilutions) in running buffer and kinetics was assessed using multi-cycle kinetics method (120 sec association-300 sec dissociation). Kinetics and/or Affinity quantification was performed using Biacore Insight following standard analyses methods.

[3] = molecular target: T1, canine CD20 on cells (HEK293, MDCK II, …); experiment: cell-based or functional assay
[4] = molecular target: T1, canine CD20 on cells (HEK293, MDCK II, …); experiment: cell-based or functional assay
[5] = molecular target: T1, canine CD20 on cells (HEK293, MDCK II, …); experiment: cell-based or functional assay

T2 sequence (chain, as listed by the source mutant limits assumed): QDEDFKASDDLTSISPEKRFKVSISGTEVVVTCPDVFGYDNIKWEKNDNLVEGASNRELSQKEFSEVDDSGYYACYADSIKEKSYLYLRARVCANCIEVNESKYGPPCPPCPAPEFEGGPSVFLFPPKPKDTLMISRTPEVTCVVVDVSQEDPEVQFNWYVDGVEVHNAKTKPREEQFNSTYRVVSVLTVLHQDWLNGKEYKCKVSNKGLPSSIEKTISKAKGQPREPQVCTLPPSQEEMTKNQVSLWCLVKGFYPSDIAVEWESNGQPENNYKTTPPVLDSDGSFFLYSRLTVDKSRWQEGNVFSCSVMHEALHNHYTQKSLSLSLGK
canine CD3 on canine T cells (canine PBMC), sequence (P27597 22-202 limits assumed, chain 1 of 3): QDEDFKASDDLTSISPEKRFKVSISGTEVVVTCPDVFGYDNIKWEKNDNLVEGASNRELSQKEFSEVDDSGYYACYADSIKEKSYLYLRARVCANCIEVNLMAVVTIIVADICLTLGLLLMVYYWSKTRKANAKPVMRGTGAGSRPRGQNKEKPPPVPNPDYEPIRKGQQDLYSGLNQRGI
canine CD3 on canine T cells (canine PBMC), sequence (chain, as listed by the source limits assumed, chain 2 of 3): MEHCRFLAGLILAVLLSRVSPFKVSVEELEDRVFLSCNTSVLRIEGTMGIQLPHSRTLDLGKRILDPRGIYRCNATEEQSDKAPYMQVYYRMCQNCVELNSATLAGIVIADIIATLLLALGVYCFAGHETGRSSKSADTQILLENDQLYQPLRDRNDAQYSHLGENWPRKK
canine CD3 on canine T cells (canine PBMC), sequence (chain, as listed by the source limits assumed, chain 3 of 3): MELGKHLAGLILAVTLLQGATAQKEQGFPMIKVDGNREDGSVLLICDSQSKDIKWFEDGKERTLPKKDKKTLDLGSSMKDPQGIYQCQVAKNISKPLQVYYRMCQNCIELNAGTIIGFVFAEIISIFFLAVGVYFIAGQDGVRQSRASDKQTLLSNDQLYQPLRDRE

Row | Binder | EC50 (nM), bispecific killing (FIG. 13E) [3] [nM] | EC50 (nM), bispecific killing (FIG. 15) [4] [nM] | EC50 (nM), endogenous B cell depletion in PBMC (FIG. 16A) [5] [nM] | other results
1 | B1 | – | – | – | EC50 (M) of killing potency, bispecific killing of hCD20+GFP MDCK II cells by canine PBMC [1]: 1.14e-08 M; Kd [2]: 106 nM
2 | B2 | – | – | – | EC50 (M) of killing potency, bispecific killing of hCD20+GFP MDCK II cells by canine PBMC [1]: 8.23e-09 M; Kd [2]: 292 nM
3 | B3 | 15.7 | – | – | –
4 | B4 | – | 0.129 | 0.247 | –
5 | B5 | – | – | 0.764 | –
6 | B6 | – | 1.02 | – | –
7 | B7 | – | 0.188 | 0.307 | –
8 | B8 | 5.87 | – | – | –
9 | B9 | 2.59 | – | – | –
10 | B10 | – | 0.153 | 0.075 | –
11 | B11 | – | 0.412 | – | –
12 | B12 | – | 0.445 | – | –
13 | B13 | – | 0.341 | – | –
14 | B14 | 9.63 | – | – | –
15 | B15 | – | 0.121 | 0.183 | –
16 | B16 | 2.88 | 0.361 | 0.828 | –

Source: US20240209086A1 (PETMEDIX, published 2024)
